{
  "source": "patent US20230127047A1",
  "about": "“SELECTIVE GIP RECEPTOR AGONISTS COMPRISING A CHELATING MOIETY FOR IMAGING AND THERAPY PURPOSES” (ANTAROS MEDICAL AB, priority 2020, published 2023)",
  "molecules": {"B1": {"name": "GIP (glucose-dependent insulinotropic polypeptide), SEQ ID NO: 1 (ligand)", "peptide": "YAEGTFISDYSIAMDKIHQQDFVNWLLAQKGKKNDWKHNITQ-OH"}, "B2": {"name": "SEQ ID NO: 3 (GIP(1-30) analog with K(DOTA) at position 31, unloaded) (peptide)", "peptide": "Y[Aib]EGTFISDLSIALDRIHQEEFIEWLLAGGK(DOTA)-NH2"}, "B3": {"name": "GIP(1-30) amide, SEQ ID NO: 2 (ligand)", "peptide": "YAEGTFISDYSIAMDKIHQQDFVNWLLAQK-NH2"}},
  "key": {"[1]": {"target": "T1, glucagon receptor (hGCGR) (Homo sapiens, UniProt P47871)", "T1 construct": "expressed in transfected cells", "T1 sequence (P47871 26-477)": "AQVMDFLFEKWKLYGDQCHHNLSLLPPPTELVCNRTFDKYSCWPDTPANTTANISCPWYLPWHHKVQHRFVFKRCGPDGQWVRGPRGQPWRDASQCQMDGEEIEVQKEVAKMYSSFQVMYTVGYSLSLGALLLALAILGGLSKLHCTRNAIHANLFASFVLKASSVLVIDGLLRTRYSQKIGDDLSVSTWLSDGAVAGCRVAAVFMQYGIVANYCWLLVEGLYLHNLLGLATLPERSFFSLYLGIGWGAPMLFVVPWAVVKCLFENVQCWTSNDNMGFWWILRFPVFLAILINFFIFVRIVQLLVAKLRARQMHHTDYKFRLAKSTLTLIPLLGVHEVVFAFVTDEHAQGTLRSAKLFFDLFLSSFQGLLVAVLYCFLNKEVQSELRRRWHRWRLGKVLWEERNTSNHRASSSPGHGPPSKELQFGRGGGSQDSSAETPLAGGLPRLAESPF", "assay": "cAMP response (HTRF) in PSC-HEK-293 cells expressing human glucagon receptor", "format": "cell-based", "procedure": "(§1) Each vial contained 1.8 ml cells. The vials were slowly frozen to −80° C. in isopropanol, and then transferred in liquid nitrogen for storage.\n(§2) Prior to their use, frozen cells were thawed quickly at 37° C. and washed (5 min at 900 rpm) with 20 ml cell buffer (lx HBSS; 20 mM HEPES, with 0.1% BSA).\n(§3) For measurement of cAMP generation, 5 μl cells (final 5000 cells/well) and 5 μl of test compound were added to a 384-well plate, followed by incubation for 30 min at room temperature.\n(§4) The cAMP generated was determined using a kit from Cisbio Corp. based on HTRF (Homogenous Time Resolved Fluorescence). The cAMP assay was performed according to manufacturer's instructions (Cisbio).\n(§5) cAMP content of cells was determined using a kit from Cisbio Corp. (cat. no. 62AM4PEC) based on HTRF (Homogenous Time Resolved Fluorescence). […] Medium was then removed and cells washed with PBS lacking calcium and magnesium, followed by proteinase treatment with accutase (Sigma-Aldrich cat. no. A6964). Detached cells were washed and resuspended in assay buffer (1×HBSS; 20 mM HEPES, 0.1% BSA, 2 mM IBMX) and cellular density determined. They were then diluted to 400000 cells/ml and 25 μl-aliquots dispensed into the wells of 96-well plates. For measurement, 25 μl of test compound in assay buffer was added to the wells, followed by incubation for 30 minutes at room temperature."}, "[2]": {"target": "T2, human GIP receptor (hGIPR) (Homo sapiens, UniProt P48546)", "T2 sequence (P48546 22-466)": "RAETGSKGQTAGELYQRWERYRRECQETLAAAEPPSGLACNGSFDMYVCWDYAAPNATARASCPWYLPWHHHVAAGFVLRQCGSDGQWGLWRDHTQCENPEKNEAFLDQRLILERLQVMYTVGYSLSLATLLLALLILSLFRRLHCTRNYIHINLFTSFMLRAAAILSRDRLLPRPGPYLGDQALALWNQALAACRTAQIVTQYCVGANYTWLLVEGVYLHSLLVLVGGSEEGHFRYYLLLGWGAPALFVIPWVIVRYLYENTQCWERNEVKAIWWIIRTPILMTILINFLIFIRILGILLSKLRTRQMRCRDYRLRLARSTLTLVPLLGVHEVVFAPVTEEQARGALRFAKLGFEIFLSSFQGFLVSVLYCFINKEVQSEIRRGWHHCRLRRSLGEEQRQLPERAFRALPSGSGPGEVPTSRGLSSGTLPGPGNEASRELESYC", "assay": "cAMP response (HTRF) in PSC-HEK-293 cells expressing human GIP receptor", "format": "cell-based", "conditions": "from EC50 values of Table 5", "procedure": "as §1, §2, §3, §4, §5"}, "[3]": {"assay": "Plasma stability testing (radio-HPLC) in NHP plasma", "format": "in vitro ADME, cynomolgus monkey", "conditions": "for Intact peptide (%): NHP plasma, 37° C."}, "human GIP receptor": {"target": "T3, human GIP receptor (human, UniProt P48546 22-466)", "T3 sequence (looked up)": "T2 sequence (P48546 22-466)", "assay": "cell-based or functional assay"}, "human glucagon receptor": {"target": "human glucagon receptor (human, UniProt P47871 26-477)", "sequence (P47871 26-477)": "as the sequence (P47871 26-477) above", "assay": "cell-based or functional assay"}, "human GLP-1 receptor": {"target": "human GLP-1 receptor (human, UniProt P43220 24-463)", "assay": "cell-based or functional assay"}},
  "note": "Read-outs that look alike come from different tables or passages of the source. Where no end group is shown, it is not given here. [ ]: non-standard residue; d: D form. The star is where a group is joined. DOTA = O=C(O)CN1CCN(CC(=O)O)CCN(CC(=O)*)CCN(CC(=O)O)CC1; Aib = CC(C)(N)C(=O)O",
  "data": [
    {"molecule": "CC[C@H](C)[C@H](NC(=O)[C@H](CO)NC(=O)[C@H](Cc1ccc(O)cc1)NC(=O)[C@H](CC(=O)O)NC(=O)[C@H](CO)NC(=O)[C@@H](NC(=O)[C@H](Cc1ccccc1)NC(=O)[C@@H](NC(=O)CNC(=O)[C@H](CCC(=O)O)NC(=O)[C@H](C)NC(=O)[C@@H](N)Cc1ccc(O)cc1)[C@@H](C)O)[C@@H](C)CC)C(=O)N[C@@H](C)C(=O)N[C@@H](CCSC)C(=O)N[C@@H](CC(=O)O)C(=O)N[C@@H](CCCCN)C(=O)N[C@H](C(=O)N[C@@H](Cc1c[nH]cn1)C(=O)N[C@@H](CCC(N)=O)C(=O)N[C@@H](CCC(N)=O)C(=O)N[C@@H](CC(=O)O)C(=O)N[C@@H](Cc1ccccc1)C(=O)N[C@H](C(=O)N[C@@H](CC(N)=O)C(=O)N[C@@H](Cc1c[nH]c2ccccc12)C(=O)N[C@@H](CC(C)C)C(=O)N[C@@H](CC(C)C)C(=O)N[C@@H](C)C(=O)N[C@@H](CCC(N)=O)C(=O)N[C@@H](CCCCN)C(=O)NCC(=O)N[C@@H](CCCCN)C(=O)N[C@@H](CCCCN)C(=O)N[C@@H](CC(N)=O)C(=O)N[C@@H](CC(=O)O)C(=O)N[C@@H](Cc1c[nH]c2ccccc12)C(=O)N[C@@H](CCCCN)C(=O)N[C@@H](Cc1c[nH]cn1)C(=O)N[C@@H](CC(N)=O)C(=O)N[C@H](C(=O)N[C@H](C(=O)N[C@@H](CCC(N)=O)C(=O)O)[C@@H](C)O)[C@@H](C)CC)C(C)C)[C@@H](C)CC", "note": "[SEQ ID NO: 1, YAEGTFISDYSIAMDKIHQQDFVNWLLAQKGKKNDWKHNITQ-OH]", "values": [
      {"measurement": "EC50", "setting": "[1]", "value": "> 10", "unit": "nM"},
      {"measurement": "EC50", "setting": "[1]; read-out: EC50 hGCGR, 384-well format", "value": "> 10", "unit": "nM"}
    ]},
    {"molecule": "SEQ ID NOs: 3 (Y[Aib]EGTFISDLSIALDRIHQEEFIEWLLAGGK(DOTA)-NH2)", "values": [
      {"measurement": "potency (ability to activate the human GIP receptor) compared to native GIP or GIP(1-30)", "setting": "[2]", "value": "lower potency"}
    ]},
    {"molecule": "Y-Aib-EGTFISDLSIALDRIHQEEFIEWLLAGGK(DOTA(Ga))-NH2 (Y[Aib]EGTFISDLSIALDRIHQEEFIEWLLAGGK(DOTA)-NH2; also: Ga (68Ga) complexed in DOTA on Lys31) [SEQ ID NO: 4]", "values": [
      {"measurement": "potency (ability to activate the human GIP receptor) compared to native GIP or GIP(1-30)", "setting": "[2]", "value": "lower potency"},
      {"measurement": "Intact peptide (%)", "setting": "[3]; 0 min", "value": 99.5, "unit": "%"},
      {"measurement": "Intact peptide (%)", "setting": "[3]; 15 min", "value": 98.65, "unit": "%"},
      {"measurement": "Intact peptide (%)", "setting": "[3]; 45 min", "value": 96.31, "unit": "%"},
      {"measurement": "Intact peptide (%)", "setting": "[3]; 90 min", "value": 92.98, "unit": "%"},
      {"measurement": "radioactive signal arising from intact peptide", "setting": "[3]; plasma from NHP, after 90 minutes incubation", "value": "> 92", "unit": "%"}
    ]},
    {"molecule": "hGlucagon (from UniProt P01275 53-81) (ligand)", "values": [
      {"measurement": "EC50 hGIP R, cAMP formation (HTRF), 96-well format", "setting": "human GIP receptor", "value": "> 10", "unit": "nM"},
      {"measurement": "EC50 hGIP R, cAMP formation (HTRF), 384-well format", "setting": "human GIP receptor", "value": "> 10", "unit": "nM"}
    ]},
    {"molecule": "B1", "values": [
      {"measurement": "EC50 hGCGR, cAMP formation (HTRF), 96-well format", "setting": "human glucagon receptor", "value": "> 10", "unit": "nM"},
      {"measurement": "EC50 hGCGR, cAMP formation (HTRF), 384-well format", "setting": "human glucagon receptor", "value": "> 10", "unit": "nM"}
    ]},
    {"molecule": "B2", "values": [
      {"measurement": "EC50 hGCGR, cAMP formation (HTRF), 96-well format", "setting": "human glucagon receptor", "value": "> 10", "unit": "nM"},
      {"measurement": "EC50 hGIP R, cAMP formation (HTRF), 96-well format", "setting": "human GIP receptor", "value": 0.00113, "unit": "nM"},
      {"measurement": "EC50 hGLP-1 R, cAMP formation (HTRF), 96-well format", "setting": "human GLP-1 receptor", "value": "> 10", "unit": "nM"}
    ]},
    {"molecule": "B3", "values": [
      {"measurement": "EC50 hGCGR, cAMP formation (HTRF), 96-well format", "setting": "human glucagon receptor", "value": "> 10", "unit": "nM"},
      {"measurement": "EC50 hGLP-1 R, cAMP formation (HTRF), 96-well format", "setting": "human GLP-1 receptor", "value": "> 10", "unit": "nM"}
    ]}
  ]
}
